Where a chain is given by its changes, count along the chain named.
Assays:
[1] = target: T1, PPAR-RXR complex (Homo sapiens, UniProt P37231); assay: Formation of the PPAR-RXR complex; assay type: cell-based; details: overexpression, FIG. 8C
T1 sequence (P37231 1-505): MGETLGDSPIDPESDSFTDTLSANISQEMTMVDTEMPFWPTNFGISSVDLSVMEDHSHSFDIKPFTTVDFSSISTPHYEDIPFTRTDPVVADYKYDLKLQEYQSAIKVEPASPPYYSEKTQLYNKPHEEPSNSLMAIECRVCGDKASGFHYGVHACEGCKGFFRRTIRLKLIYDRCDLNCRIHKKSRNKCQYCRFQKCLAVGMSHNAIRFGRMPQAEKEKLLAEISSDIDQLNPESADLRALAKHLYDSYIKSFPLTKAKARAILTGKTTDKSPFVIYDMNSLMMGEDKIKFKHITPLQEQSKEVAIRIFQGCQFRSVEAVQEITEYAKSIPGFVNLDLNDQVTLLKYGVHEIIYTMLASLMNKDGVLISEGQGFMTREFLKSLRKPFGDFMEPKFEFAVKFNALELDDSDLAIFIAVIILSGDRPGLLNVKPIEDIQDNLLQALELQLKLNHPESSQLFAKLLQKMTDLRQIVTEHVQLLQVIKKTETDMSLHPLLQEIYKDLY
T1 sequence (P19793 1-462 partner): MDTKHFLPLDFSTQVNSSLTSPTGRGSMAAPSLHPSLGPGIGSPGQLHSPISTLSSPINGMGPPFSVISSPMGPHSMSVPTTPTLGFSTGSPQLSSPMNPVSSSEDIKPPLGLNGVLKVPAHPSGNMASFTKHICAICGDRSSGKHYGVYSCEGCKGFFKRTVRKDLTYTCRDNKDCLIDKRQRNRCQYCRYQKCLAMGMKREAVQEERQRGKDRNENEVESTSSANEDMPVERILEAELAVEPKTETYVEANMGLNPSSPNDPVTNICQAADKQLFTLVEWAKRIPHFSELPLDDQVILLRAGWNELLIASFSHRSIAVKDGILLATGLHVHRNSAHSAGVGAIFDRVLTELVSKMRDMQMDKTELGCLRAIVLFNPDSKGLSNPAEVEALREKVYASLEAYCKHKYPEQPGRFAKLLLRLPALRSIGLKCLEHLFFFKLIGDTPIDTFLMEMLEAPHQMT

[2] = target: T2, PPARγ2 S273A mutant (Homo sapiens, UniProt P37231, S273A); assay: aP2 promoter luciferase reporter with PPARγ2 S273A mutant in HEK-293T cells; assay type: cell-based; details: overexpression of 14-3-3β or 14-3-3γ, FIG. 4C/4D
T2 construct: expressed in transfected cells; host or cells: HEK-293T
T2 sequence (P37231 1-505 S273A): T1 sequence (P37231 1-505) with S273A
Description: In addition, HEK-293T cells were seeded in a 12-well plate at a density of 1×10^5 cells per each well, and then transfected with an aP2 promoter construct (0.5 μg), Flag-PPARγ2 (S112A) DNA (0.5 μg) or Flag-PPARγ2 (S273A) DNA (0.5 μg), and mGST-14-3-3β DNA (0.5 μg) or mGST-14-3-3γ DNA (0.5 μg) using an E-fection plus reagent (Lugen). A ratio of DNA to the E-fection plus reagent was 1:2, and this method was performed according to a manufacturer's manual. The corresponding cells were washed with ice-cold PBS, and lysed using 80 μl/well of a reporter lysis buffer (Promega, Madison, Wis.), and the lysed cells were centrifuged at 10,000×g and 4° C. for 10 minutes to collect a supernatant, and luciferase activity was measured. As an instrument, Luminometer 20/20n (Turner Biosystems, Sunnyvale, Calif.) was used. For normalization, the cells were cotransfected with pSV40-β-galactosidase. For the collected supernatant, β-galactosidase activity was measured and the luciferase activity was revised, and the obtained values were plotted. At this time, a β-galactosidase enzyme analysis system (Promega, Madison, Wis.) was used, and analysis was performed using a DU530 spectrophotometer (Beckman Instruments, Palo Alto, Calif.).

[3] = target: T2, PPARγ2 S273A mutant; assay: GST-pull down assay with PPARγ2 S273A mutant; assay type: binding; details: FIGS. 4A and 4B
Description: 14-3-3 proteins are known to bind to phosphorylated residues of a target protein. Phosphorylated residues associated with the activity of PPARγ2 are known to be serine 112 and serine 273. Thus, PPARγ2 mutants (PPARγ2 S112A and S273A) with non-phosphorylated serine 112 and serine 273 residues were produced and binding thereof with 14-3-3 proteins was verified through GST-pull down assay.
HEK-293T cells were seeded in a 100 mm plate at a density of 2×10^6 cells per each well, and then transfected with Flag-PPARγ2 (WT) DNA (4 μg), Flag-PPARγ2 (S112A) DNA (4 μg), Flag-PPARγ2 (S273A) DNA (4 μg), and mGST-14-3-3β (4 μg) or mGST-14-3-3γ (4 μg) using an E-fection plus reagent (Lugen). As for Flag-PPARγ2 (S112A) DNA and Flag-PPARγ2 (S273A) DNA, DNA fragments amplified through polymerase chain reaction (PCR) were cloned into a Flag-tagged vector. A ratio of DNA to the E-fection plus reagent was 1:2, and this method was performed according to a manufacturer's manual. The corresponding cells were washed with ice-cold PBS and lysed using 500 μl/well of a lysis buffer (150 mM NaCl, 1 mM EDTA, 1% Nonidet P-40, 5% glycerol, 25 mM tris-HCl, pH 7.5, protease inhibitor added), and the lysed cells were centrifuged at 10,000×g and 4° C. for 10 minutes to extract proteins. […]

Substance | formation of the PPAR-RXR complex [1] | transcriptional activity of PPARγ2 S273A mutant [2] | binding with PPARγ2 S273A mutant [3]
14-3-3γ: 14-3-3 isoform protein overexpressed by DNA transfection; decreases the transcriptional activity of PPARγ2; proposed active ingredient | did not affect | no change | suppressed
14-3-3β: 14-3-3 isoform protein overexpressed by DNA transfection; increases the transcriptional activity of PPARγ2 by binding to PPARγ2 | did not affect | no change | suppressed
